Literature values, collected in article PMC12186298, “Phase 1 clinical trial of eneboparatide, a novel PTH receptor 1 agonist” (Endocrine Connections, 2025).

Test system: patients with hypoparathyroidism
Settings: not associated with increased elimination of phosphorus in urine; cited from earlier work
Procedure: Hyperphosphataemia enhances the risk of long-term development of cardiovascular diseases that is particularly important in patients with renal insufficiency, but also exists in patients with normal renal function ([16]). […] This decrease in sPh was apparent after 14 days of treatment in connection with a reduction in the rate of renal reabsorption of phosphorus. The impact of eneboparatide on sPh was primarily observed within the first 12 h after dosing.

B1: PTH(1–84): parathyroid hormone (1–84) therapy, cited comparator (protein, UniProt P01270 32-115, looked up)
Parathyroid hormone: SVSEIQLMHNLGKHLNSMERVEWLRKKLQDVHNFVALGAPLAPRDAGSQRPRKKEDNVLVESHEKSLGEADKADVNVLTKAKSQ
modifications: Parathyroid hormone
notes: parathyroid hormone (1–84) therapy, cited comparator
For B1, the “sPh after the onset of therapy” value is given as “decreased rapidly and significantly”.
